The Kd is the constant that tells how readily two partners part at equilibrium. Broadly, the koff is the first-order rate constant of dissociation. Read a high koff as fast dissociation.

The record followed here is paper PMC2714985 (Journal of immunology (Baltimore, Md. : 1950), 2009).

This experiment has as its target rat collagen type I (rat, UniProt P02454 152-1207; P02466 86-1125). As to the kind of experiment: SPR.

rat collagen type I, sequence (P02454 152-1207, chain 1 of 2): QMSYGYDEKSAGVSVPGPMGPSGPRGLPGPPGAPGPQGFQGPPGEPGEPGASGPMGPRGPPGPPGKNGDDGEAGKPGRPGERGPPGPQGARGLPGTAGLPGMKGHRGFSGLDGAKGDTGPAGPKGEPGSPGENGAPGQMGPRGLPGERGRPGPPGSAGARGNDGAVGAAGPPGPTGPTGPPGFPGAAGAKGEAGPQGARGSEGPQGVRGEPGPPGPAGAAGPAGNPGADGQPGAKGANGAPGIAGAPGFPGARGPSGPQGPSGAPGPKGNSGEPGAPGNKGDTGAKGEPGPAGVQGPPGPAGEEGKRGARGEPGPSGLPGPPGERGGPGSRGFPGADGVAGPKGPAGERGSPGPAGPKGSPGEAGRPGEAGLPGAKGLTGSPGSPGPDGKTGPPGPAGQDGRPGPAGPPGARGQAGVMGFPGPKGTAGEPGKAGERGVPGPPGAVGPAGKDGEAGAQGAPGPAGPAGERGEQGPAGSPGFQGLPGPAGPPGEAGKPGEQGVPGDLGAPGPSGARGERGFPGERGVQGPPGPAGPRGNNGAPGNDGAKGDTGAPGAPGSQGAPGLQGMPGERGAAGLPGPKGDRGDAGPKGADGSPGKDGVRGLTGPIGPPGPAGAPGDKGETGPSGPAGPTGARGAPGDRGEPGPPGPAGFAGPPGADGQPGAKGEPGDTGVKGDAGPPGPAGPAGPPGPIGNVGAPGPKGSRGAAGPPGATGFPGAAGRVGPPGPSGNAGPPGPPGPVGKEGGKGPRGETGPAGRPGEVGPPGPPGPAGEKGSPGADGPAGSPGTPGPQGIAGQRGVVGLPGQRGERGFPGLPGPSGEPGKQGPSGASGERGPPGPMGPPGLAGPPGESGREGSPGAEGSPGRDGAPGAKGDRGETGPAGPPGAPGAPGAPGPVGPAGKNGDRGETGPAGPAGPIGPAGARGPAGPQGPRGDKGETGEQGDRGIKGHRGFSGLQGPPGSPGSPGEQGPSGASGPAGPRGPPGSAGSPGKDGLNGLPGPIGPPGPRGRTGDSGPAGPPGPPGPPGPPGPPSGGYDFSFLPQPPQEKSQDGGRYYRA
rat collagen type I, sequence (P02466 86-1125, chain 2 of 2): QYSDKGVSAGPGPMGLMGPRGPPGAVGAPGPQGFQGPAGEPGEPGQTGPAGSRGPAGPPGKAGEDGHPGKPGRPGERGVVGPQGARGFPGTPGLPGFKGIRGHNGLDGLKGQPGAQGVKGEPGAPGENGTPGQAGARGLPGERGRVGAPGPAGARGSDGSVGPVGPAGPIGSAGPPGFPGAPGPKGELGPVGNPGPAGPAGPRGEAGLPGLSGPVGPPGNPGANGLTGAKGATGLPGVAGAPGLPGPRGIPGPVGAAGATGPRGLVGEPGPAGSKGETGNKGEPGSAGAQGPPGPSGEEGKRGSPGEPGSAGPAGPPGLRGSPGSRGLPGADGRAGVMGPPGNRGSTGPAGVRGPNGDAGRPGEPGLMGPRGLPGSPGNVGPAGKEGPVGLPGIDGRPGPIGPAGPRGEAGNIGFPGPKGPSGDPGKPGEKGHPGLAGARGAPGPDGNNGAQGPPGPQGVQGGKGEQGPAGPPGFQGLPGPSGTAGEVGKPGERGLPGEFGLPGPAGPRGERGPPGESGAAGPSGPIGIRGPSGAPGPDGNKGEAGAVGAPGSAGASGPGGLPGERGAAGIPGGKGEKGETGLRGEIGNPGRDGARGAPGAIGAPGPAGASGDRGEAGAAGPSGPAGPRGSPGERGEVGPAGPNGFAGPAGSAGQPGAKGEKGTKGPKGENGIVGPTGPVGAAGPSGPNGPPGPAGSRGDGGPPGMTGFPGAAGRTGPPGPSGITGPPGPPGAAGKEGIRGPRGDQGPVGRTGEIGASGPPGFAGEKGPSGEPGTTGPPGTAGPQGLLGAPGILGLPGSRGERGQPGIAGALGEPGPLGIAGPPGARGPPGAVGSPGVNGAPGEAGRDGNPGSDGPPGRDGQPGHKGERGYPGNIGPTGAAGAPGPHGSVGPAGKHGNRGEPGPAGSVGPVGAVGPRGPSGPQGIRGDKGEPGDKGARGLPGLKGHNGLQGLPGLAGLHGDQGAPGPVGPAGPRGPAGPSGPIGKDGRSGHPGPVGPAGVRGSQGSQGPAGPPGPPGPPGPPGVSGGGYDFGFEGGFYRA

B1: LAIR-1/Fc wt fusion protein (Fc fusion, human, UniProt Q6GTX8 22-165, looked up)
chain: QEEDLPRPSISAEPGTVIPLGSHVTFVCRGPVGVQTFRLERDSRSTYNDTEDVSQASPSESEARFRIDSVREGNAGLYRCIYYKPPKWSEQSDYLELLVKESSGGPDSPDTEPGSSAGPTQRPSDNSHNEHAPASQGLKAEHLY
Regarding B1, the affinity, expressed as Kd, was 145 nM and the dissociation rate constant (koff) came to 0.0456 s⁻¹.
